Patent CN115746140A (SHENZHEN KANGTI BIOMEDICAL TECH CO LTD, dated 2023)

Target: T1, PCSK9蛋白 (Proprotein convertase subtilisin kexin type 9) (UniProt Q8NBP7 31-692, limits assumed)
T1 construct: also called PCSK9抗原
Assay: SPR; immobilised partner and format not stated

T1 sequence (Q8NBP7 31-692 limits assumed): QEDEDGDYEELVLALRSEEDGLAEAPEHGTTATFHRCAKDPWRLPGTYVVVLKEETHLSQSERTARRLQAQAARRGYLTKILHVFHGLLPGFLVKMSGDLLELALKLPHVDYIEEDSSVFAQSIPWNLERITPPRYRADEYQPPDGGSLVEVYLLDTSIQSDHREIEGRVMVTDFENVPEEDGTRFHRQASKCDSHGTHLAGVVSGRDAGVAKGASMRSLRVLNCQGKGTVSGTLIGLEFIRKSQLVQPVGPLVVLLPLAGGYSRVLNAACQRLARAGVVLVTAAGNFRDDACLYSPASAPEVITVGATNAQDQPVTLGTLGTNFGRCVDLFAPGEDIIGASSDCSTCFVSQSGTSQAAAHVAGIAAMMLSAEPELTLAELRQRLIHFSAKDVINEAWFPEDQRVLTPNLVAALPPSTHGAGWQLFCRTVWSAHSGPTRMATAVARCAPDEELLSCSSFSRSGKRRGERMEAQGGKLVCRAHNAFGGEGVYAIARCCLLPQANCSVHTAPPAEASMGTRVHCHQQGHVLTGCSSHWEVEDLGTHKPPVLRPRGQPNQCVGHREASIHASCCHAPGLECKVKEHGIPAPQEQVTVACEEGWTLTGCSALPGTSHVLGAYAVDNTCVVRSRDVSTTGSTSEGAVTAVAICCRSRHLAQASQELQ

Kd: 70 nM
koff: 0.00921 s⁻¹
kon: 130000 M⁻¹ s⁻¹
B1: 纳米抗体P2-11D (anti-PCSK9 nanobody P2-11D) (VHH)
VHH: DVQLQESGGGLVQPGGSLRLSCAASGFTFRAYDMGWYRQAPGKQRDLVAVISSSGGTPNYADSVKDRFTISRDNDKNTVYLQMNSLKSEDTALYYCNARWESSAYERDYWGRGTQVTVSS
notes: Monovalent alpaca VHH, expressed from pET22b in E. coli BL21 and purified on Ni resin and by size exclusion; also called 抗PCSK9单域重链抗体; 抗PCSK9的纳米抗体
